Results published in paper PMC3486911 (PLoS Pathogens, 2012).
Where “and” joins values, the source holds several entries; their conditions need not be identical. Identical values can stand only once. Like-named read-outs stand apart in the source and are kept apart here.

Columns and labels:
Assay in all cases: SPR
[1] = biological target: V3 fHbp Ile89 mutant (to Ala) (Neisseria meningitidis) (UniProt E6MV22)
[2] = biological target: V3 fHbp (V3.p28), wild type (Neisseria meningitidis) (UniProt E6MV22)
[3] = biological target: V2 fHbp Gln191 mutant (to Ala) (Neisseria meningitidis)
[4] = biological target: V2 fHbp Glu262 mutant (to Ala) (Neisseria meningitidis)
[5] = biological target: V1 fHbp Lys191-Ala (Neisseria meningitidis)
[6] = biological target: V2 fHbp Val196 mutant (to Ala) (Neisseria meningitidis)
[7] = biological target: V2 fHbp Lys264 mutant (to Ala) (Neisseria meningitidis)
[8] = biological target: V1 fHbp Ile196-Ala (Neisseria meningitidis)
[9] = biological target: V2 fHbp Thr304 mutant (to Ala) (Neisseria meningitidis)
[10] = biological target: V2 fHbp Val311 mutant (to Ala) (Neisseria meningitidis)
[11] = biological target: V2 fHbp Ser302 mutant (to Ala) (Neisseria meningitidis)
[12] = biological target: V1 fHbp (V1.p1), wild type (Neisseria meningitidis) (UniProt Q9JXV4)
[13] = biological target: V1 fHbp His203-Ala (Neisseria meningitidis)
[14] = biological target: V1 fHbp Gln193-Ala (Neisseria meningitidis)
[15] = biological target: V2 fHbp Lys268 mutant (to Ala) (Neisseria meningitidis)
[16] = biological target: V2 fHbp Leu199 mutant (to Ala) (Neisseria meningitidis)
[17] = biological target: V1 fHbp Arg195-Ala (Neisseria meningitidis)
[18] = biological target: V2 fHbp His203 mutant (to Ala) (Neisseria meningitidis)
[19] = biological target: V1 fHbp Phe194-Ala (Neisseria meningitidis)
[20] = biological target: V2 fHbp (V2.p21), wild type (Neisseria meningitidis) (UniProt E6MV22)
[21] = biological target: V3 fHbp (V3.p28), wild type (Neisseria meningitidis) (UniProt E6MV22); remark: listed apart in the source
[22] = biological target: V2 fHbp Gln191 mutant (to Ala) (Neisseria meningitidis); remark: listed apart in the source
[23] = biological target: V2 fHbp Glu262 mutant (to Ala) (Neisseria meningitidis); remark: listed apart in the source
[24] = biological target: V2 fHbp Val196 mutant (to Ala) (Neisseria meningitidis); remark: listed apart in the source
[25] = biological target: V2 fHbp Lys264 mutant (to Ala) (Neisseria meningitidis); remark: listed apart in the source
[26] = biological target: V2 fHbp Thr304 mutant (to Ala) (Neisseria meningitidis); remark: listed apart in the source
[27] = biological target: V2 fHbp Val311 mutant (to Ala) (Neisseria meningitidis); remark: listed apart in the source
[28] = biological target: V2 fHbp Ser302 mutant (to Ala) (Neisseria meningitidis); remark: listed apart in the source
[29] = biological target: V1 fHbp (V1.p1), wild type (Neisseria meningitidis) (UniProt Q9JXV4); remark: listed apart in the source
[30] = biological target: V2 fHbp Lys268 mutant (to Ala) (Neisseria meningitidis); remark: listed apart in the source
[31] = biological target: V2 fHbp Leu199 mutant (to Ala) (Neisseria meningitidis); remark: listed apart in the source
[32] = biological target: V2 fHbp His203 mutant (to Ala) (Neisseria meningitidis); remark: listed apart in the source

human factor H CCP 6 and 7 (fH67) (domain or fragment)
Kd [1]: 38 nM | Kd [2]: 2.8 nM and 3 nM and 2.9 nM | Kd [3]: 2.7 nM and 2.5 nM | Kd [4]: 5.6 nM and 5 nM | Kd [5]: 4.5 nM and 3.8 nM | Kd [6]: 32 nM and 14 nM | Kd [7]: 9.5 nM and 8.6 nM | Kd [8]: 1.4 nM and 1.6 nM | Kd [9]: 7.9 nM and 8.5 nM | Kd [10]: 7 nM and 7.9 nM | Kd [11]: 3.7 nM and 4.4 nM | Kd [12]: 2.7 nM and 3.1 nM and 2.6 nM | Kd [13]: 1.4 nM and 2 nM | Kd [14]: 5.3 nM and 4.2 nM | Kd [15]: 2.3 nM and 2.2 nM | Kd [16]: 16 nM and 15 nM | Kd [17]: 360 nM and 75 nM | Kd [18]: 2.5 nM and 2.8 nM | Kd [19]: 6 nM and 6.3 nM | Kd [20]: 2.15 nM and 1.85 nM | Kd [21]: 2.95 nM | Kd [22]: 2.6 nM | Kd [23]: 5.3 nM | Kd [24]: 23 nM | Kd [25]: 9.05 nM | Kd [26]: 8.2 nM | Kd [27]: 7.45 nM | Kd [28]: 4.05 nM | Kd [29]: 2.85 nM | Kd [30]: 2.25 nM | Kd [31]: 15.5 nM | Kd [32]: 2.65 nM
